Reference: patent publication EP1396542B1 (Genetics Institute, LLC, dated 2011)

T1: P-selectin expressed on the surface of CHO cells (CHO:P-selectin cell line) (UniProt P16109 42-830, limits assumed)
T1 construct: whole, on cells
T1 sequence (looked up): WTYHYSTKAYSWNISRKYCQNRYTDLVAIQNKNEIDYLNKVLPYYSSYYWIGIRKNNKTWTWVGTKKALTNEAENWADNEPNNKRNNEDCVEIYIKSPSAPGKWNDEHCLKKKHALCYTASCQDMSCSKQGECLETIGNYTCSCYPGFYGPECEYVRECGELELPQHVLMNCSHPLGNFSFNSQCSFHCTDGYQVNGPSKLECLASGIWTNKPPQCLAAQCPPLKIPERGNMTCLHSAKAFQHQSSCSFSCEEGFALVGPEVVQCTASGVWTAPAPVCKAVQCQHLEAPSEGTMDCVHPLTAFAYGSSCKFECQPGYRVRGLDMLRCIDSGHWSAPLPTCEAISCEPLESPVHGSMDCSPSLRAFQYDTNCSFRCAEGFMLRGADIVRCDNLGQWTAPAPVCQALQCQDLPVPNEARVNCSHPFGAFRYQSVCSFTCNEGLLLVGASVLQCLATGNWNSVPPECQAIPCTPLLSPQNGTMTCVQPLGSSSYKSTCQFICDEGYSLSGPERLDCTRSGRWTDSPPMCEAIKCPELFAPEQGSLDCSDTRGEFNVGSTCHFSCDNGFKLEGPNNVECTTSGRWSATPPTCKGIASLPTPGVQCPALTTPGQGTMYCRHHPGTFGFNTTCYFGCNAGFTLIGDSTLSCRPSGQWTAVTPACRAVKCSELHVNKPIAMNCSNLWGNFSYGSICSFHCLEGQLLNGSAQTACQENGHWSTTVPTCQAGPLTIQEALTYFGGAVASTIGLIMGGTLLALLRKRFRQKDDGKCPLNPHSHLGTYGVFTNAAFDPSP


What was measured:
[1] = biological target: T1, P-selectin expressed on the surface of …; experiment: conditioned medium coated onto plastic dishes, binding of CHO:P-selectin cells; reference is sPSL.T7 without PACE
[2] = biological target: T1, P-selectin expressed on the surface of …; experiment: adhesion of 3H-thymidine labeled CHO:P-selectin cells to transfected COS cells, scintillation counting

| fold increase in bound CHO:P-selectin cells against P-selectin ligand not co-expressed with PACE [1] [fold] | fold binding of CHO:P-selectin cells relative to COS mock cells [2] [fold] | Binder |
| --- | --- | --- |
| ~2 | – | sPSL.T7 co-expressed with 3/4FT and PACE (PACE-cleaved soluble P-selectin ligand) (ligand, not shown: large carriers, glycoprotein made in cells co-expressing 3/4FT, also called PACE-cleaved P-selectin ligand; sPSL.T7 from the CP/PSL-T7 (R4.1) CHO-PACE line) QATEYEYLDYDFLPETEPPEMLRNSTDTTPLTGPGTPESTTVEPAARRSTGLDAGGAVTELTTELANMGNLSTDSAAMEIQTTQPAATEAQTTPLAATEAQTTRLTATEAQTTPLAATEAQTTPPAATEAQTTQPTGLEAQTTAPAAMEAQTTAPAAMEAQTTPPAAMEAQTTQTTAMEAQTTAPEATEAQTTQPTATEAQTTPLAAMEALSTEPSATEALSMEPTTKRGLFIPFSVSSVTHKGIPMAASNLSV |
| – | ~5.4 | P-selectin ligand protein, full length, expressed on COS cells co-transfected with pMT21:PL85 and the 3/4FT gene (pEA.3/4FT) (ligand, glycoprotein made in cells co-expressing (α1,3/1,4) fucosyltransferase (3/4FT), also called PSL; protein encoded by pMT21:PL85) QATEYEYLDYDFLPETEPPEMLRNSTDTTPLTGPGTPESTTVEPAARRSTGLDAGGAVTELTTELANMGNLSTDSAAMEIQTTQPAATEAQTTPLAATEAQTTRLTATEAQTTPLAATEAQTTPPAATEAQTTQPTGLEAQTTAPAAMEAQTTAPAAMEAQTTPPAAMEAQTTQTTAMEAQTTAPEATEAQTTQPTATEAQTTPLAAMEALSTEPSATEALSMEPTTKRGLFIPFSVSSVTHKGIPMAASNLSVNYPVGAPDHISVKQCLLAILILALVATIFFVCTVVLAVRLSRKGHMYPVRNYSPTEMVCISSLLPDGGEGPSATANGGLSKAKSPGLTPEPREDREGDDLTLHSFLP |
